# Reference: patent publication US8487082B2, “Synthetic scFv analogue to the 6313/G2 (anti angiotensin II type 1 receptor) monoclonal antibody variable regions” (Queen Mary & Westfield College, priority 2008, dated 2013)
# B1: R6313/G2: murine scFv analogue of the 6313/G2 anti-AT1 receptor monoclonal antibody variable domains, SEQ ID NO:15 (protein)
# scFv: YAAQPAMAQVKLQQSGPELEKPGASVKISCKASGYSFTGYNMNWVKQSNGKSLEWIGNIDPYYGGTTYNQKFKGKATLTVDKSSSTAYMQLKSLTSEDSAVYYCAREVDYWGQGTTVTVSSGGGGSGGGGSGGGGSDIELTQSPASLAVSLGQRATISYRASKSVSTSGYSYMHWNQQKPGQPPRLLIYLVSNLESGVPARFSGSGSGTDFTLNIHPVEEEDAATYYCQHIRELTRSEGTKLEIKRAAAGAPVPY
# modifications: 12D
# Columns and labels:
# MCF-7 cells [1] = assay: Cell viability assay (XTT); format: cell-based; details: MCF-7, 100 nmol angiotensin II per L, XTT, 48 hours
# Method: (§1) MCF-7, T47D and MDA-MB-231 breast cancer cells were obtained from The American Tissue Culture Collection (LGC Promochem, Teddington, UK). Rat aortic smooth muscle cells (RASMC) were developed from primary culture (Barker et al., 1996). MCF-7 cells were maintained in Minimal Essential Medium (MEM), T47D and MDA-MB-231 cells in RPMI 1640 medium, and RASMC were maintained in Dulbecco's Modified Eagle's Medium (DMEM). All media were supplemented with 2 mM L-glutamine, 10% fetal bovine serum (FBS), 50 U/ml penicillin and 0.05 mg/ml streptomycin. Cells were maintained at 37° C. in a humidified atmosphere ([…], 5% CO2).
# (§2) Confluent cell monolayers were removed from tissue culture flasks using trypsin/EDTA. Cells (15×10^3 per well) were seeded into 96 well tissue culture plates containing the appropriate medium for each cell line. […] Cell viability was assessed by the ability of metabolically active cells to reduce 2,3-bis[2-Methoxy-4-nitro-5-sulphophenyl]-2H-tetrazolium-5-carboxyanilide inner salt (XTT) to the coloured formazan product. Absorbance was measured using a Multiskan Ascent microplate reader (Thermo Labsystem, Helsinki, Finland) at a wavelength of 450 nm and a reference wavelength of 630 nm. Each measurement was performed in triplicate. IC50s were calculated using a non-linear regression formula using GraphPad Prism v4.0 software (GraphPad Software Inc, San Diego Calif., USA).
# T47D cells [2] = assay: Cell viability assay (XTT); format: cell-based; details: 100 nmol angiotensin II per L, XTT, 48 hours
# Method: as §1, §2
# MDA-MB-231 cells [3] = assay: Cell viability assay (XTT); format: cell-based; details: MDA-MB-231, 100 nmol angiotensin II per L, XTT, 48 hours
# Method: as §1, §2
# [4] = system: cancer cells in hollow fibers; assay: In vivo hollow fiber assay (summary statements); design: species or system nu/nu mice
# Method: (§3) Hollow Fiber procedures followed the method of Hollingshead. (Hollingshead et al Life Sci 57 131-41 (1995)).
# Cell-loaded hollow fiber segments were incubated at 37° C. in culture medium overnight before implantation into pure strain 5-6 week old female balb/c nu/nu mice. Fibers were implanted into the animals under anaesthesia (2% Isofluorane). Three 2 cm fibers, each containing one of the cell lines MCF-7, T47D, or MDA-MB-231, were implanted at both subcutaneous (s.c.) and intraperitoneal (i.p.) sites into each animal. For i.p. implants, a small incision was made through the skin and musculature of the ventral abdominal wall. Fibers were placed into the peritoneal cavity and both incisions were closed with metallic suture clips (Harvard Instruments, Edenbridge UK). For s.c. implants, a small incision was made dorsally. The fibers were implanted to the left of the dorsal midline in a cranial direction. The small incision was closed with metallic suture clips. […]
# Cell viability was measured using a modified MTT assay. […] An aliquot (190 μl) from each well was transferred to a 96 well plate and absorbance read at 540 nm using a Multiskan Ascent photometric microplate reader (Thermo labsystem). Treated values were calculated as a percentage of the controls.
# [5] = system: T-47D breast cancer cells; assay: Fluorimetric invasion assay (QCM cell invasion, ECM); format: cell-based; details: for T-47D cell invasion through ECM: scFv alone, 50 and 250 nmol/L, 24 h
# Method: The method used is QCM™ Cell invasion assay (Chemicon Cat No. ECM555). This uses fluorimetric detection of cells which have broken through a reconstituted basement membrane matrix proteins (ECM) derived from the Engelbreth-Holm-Swam (EHS) mouse tumour (Repesh LA (1989) Invasion Metastasis 9: 192-208)
# ECM-coated inserts were placed in 96-well plates and 100 μl of prewarmed serum-free medium added to the interior of the inserts in order to hydrate the ECM layer over 1-2 h at room temperature. Media was removed and 150 μl of serum free medium added to the wells of the 96-well plate housing the inserts. 100 μl of medium containing 10^5 cells/per insert was then introduced. The plate was covered and incubated at 37 C in a 5% CO2/95% air humidified incubator for 24 h. After removing cells from inside the insert and rinsing with PBS, the insert was replaced into a 96-well plate containing Cell Detachment Solution and incubated at 37 C for 30 min. Cells that had invaded through the ECM to the bottom of the insert were, in this way, dislodged from the insert for subsequent lysis and measurement of fluorescence using a 480/520 filter set in a Fluostar Optima fluorimeter (BMG Labtech), according to manufacturer's instructions.
# MCF-7 cells [6] = assay: In vitro hollow fiber assay; format: cell-based; details: MCF-7, in the presence of angiotensin II, 48 h
# Method: as §3
# (§4) Polyvinylidene difluoride (PVDF) hollow fibers (500 kDa cut-off, 1 mm inner diameter; Spectrum Europe B.V., Breda, Netherlands) were flushed through with 70% ethanol using a blunt 21 gauge needle and 10 ml syringe. Fibers were then immersed in 70% ethanol for 72 hours, flushed through again with 70% ethanol, then distilled water, and then autoclaved at 131° C. Finally, before loading cell suspensions, fibers were flushed through with RPMI 1640 culture medium. Cells (MCF-7, T47D, and MDA-MB-231) were introduced into fibers at densities of 2.5 to 3.0×10^6 cells/ml. Fibers were then heat-sealed at 2 cm intervals and placed in Petri dishes containing 3 ml of the cell appropriate medium.
# (§5) Cell viability was measured using a modified MTT assay. Fibers were incubated in RPMI 1640 with 20% FBS containing 1 mg/ml MTT, and incubated at 37° C. under […], 5% CO2 for 4 hours. The reagent was aspirated, and 2 ml sterile filtered 2.5% protamine sulphate (0.9 g NaCl, 2.5 g protamine sulphate in 100 ml water) was added. Specimens were stored at 4° C. for a minimum of 24 hours in the dark to fix the formazan product. Fresh protamine sulphate (2.5%) was added and fibers were stored for a further 2 to 4 hours at 4° C. Each fiber was transferred to a well in a 24 well plate, cut in half and air-dried overnight, protected from light. Dimethyl sulphoxide (DMSO) (300 μl) was added to each well and the formazan product extracted. An aliquot (190 μl) from each well was transferred to a 96 well plate and absorbance read at 540 nm using a Multiskan Ascent photometric microplate reader (Thermo labsystem). Treated values were calculated as a percentage of the controls.
# T47D cells [7] = assay: In vitro hollow fiber assay; format: cell-based; details: in the presence of angiotensin II, 48 h
# Method: as §3, §4, §5
# MDA-MB-231 cells [8] = assay: In vitro hollow fiber assay; format: cell-based; details: MDA-MB-231, in the presence of angiotensin II, 48 h
# Method: as §3, §4, §5
molecule,measurement,setting,value
B1,Threshold value for inhibition of cell survival (P<0.05 or better),MCF-7 cells [1],0.05 µM
same,Threshold value for inhibition of cell survival (P<0.05 or better),T47D cells [2],1.25 µM
same,IC50,"T47D cells [2]; read-out: IC50, inhibition of cell survival",2800 nM
same,Threshold value for inhibition of cell survival (P<0.05 or better),MDA-MB-231 cells [3],0.05 µM
same,in vitro concentration giving an anti-cancer cell effect equivalent to 25 nmol/Kg in vivo,[4]; comparison of in vivo dose 25 nmol/Kg with in vitro,3.3 µmol/L
same,cancer cell growth in hollow fibers,[4]; intact nu/nu mice bearing cancer cells in hollow fibers,significantly inhibited cancer cell growth
same,inhibition of cell invasion,"[5]; 250 nmol/L R6313/G2 with angiotensin II 100 nmol/L, 24 hour assay period",up to 25%
same,effect on T-47D cell invasion in the presence of angiotensin II,"[5]; 250 nmol/L scFv, angiotensin II 100 nmol/L",significantly more pronounced
same,T-47D cell invasion through ECM,[5],inhibits T-47D cell invasion
same,T-47D cell invasion through ECM,[5]; listed as R6313/G2 clone12D,significantly inhibits T-47D cell invasion
same,cell survival in hollow fibers in vitro,MCF-7 cells [6],dose dependently inhibited survival
same,cell survival in hollow fibers in vitro,T47D cells [7],dose dependently inhibited survival
same,cell survival in hollow fibers in vitro,MDA-MB-231 cells [8],dose dependently inhibited survival
